B1: dna14 (dsDNA)
DNA 1: GCTCCTTTTTAAGGA
DNA 2: CCTTAAAAAGGAGCT
B2: dna17 (dsDNA)
DNA 1: GCTCCTTTTTAAGGGCTA
DNA 2: AGCCCTTAAAAAGGAGCT

Tests used:
[1] = target: T1, L1-EN D145A/Y226K (LINE-1 ORF2p endonuclease domain) (human, UniProt O00370 1-238, D145A;Y226K); test: X-ray crystallography; no Mg2+; 0.1 M sodium acetate pH 4.5, 0.2 M ammonium acetate, 15% PEG 4000; 2.8 A; Co-crystallization: protein 16-24 mg/ml in 300 mM NaCl, 15 mM HEPES pH 7.5, 2% glycerol, 1 mM TCEP, DNA:protein 1.2:1; crystallization pH 6.0 (dna17) or 4.5 (dna14); temperature not stated; conditions: protein: recombinant; tags: N-terminal 6xHis-SUMO, cleaved with Ulp1; single-nucleotide T/A overhangs at the ends
T1 sequence (O00370 1-238 D145A/Y226K): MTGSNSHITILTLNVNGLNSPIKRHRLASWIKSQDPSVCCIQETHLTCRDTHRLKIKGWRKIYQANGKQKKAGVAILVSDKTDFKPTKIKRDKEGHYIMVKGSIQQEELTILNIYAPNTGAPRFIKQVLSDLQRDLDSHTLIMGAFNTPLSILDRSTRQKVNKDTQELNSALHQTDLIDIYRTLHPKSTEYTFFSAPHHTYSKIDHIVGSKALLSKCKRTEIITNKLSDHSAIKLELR

[2] = target: T1, L1-EN D145A/Y226K (LINE-1 ORF2p …); test: X-ray crystallography; no Mg2+; 0.1 M MES pH 6.0, 0.2 M NaCl, 30% Jeffamine ED-2003; 2.8 A; Co-crystallization: protein 16-24 mg/ml in 300 mM NaCl, 15 mM HEPES pH 7.5, 2% glycerol, 1 mM TCEP, DNA:protein 1.2:1; crystallization pH 6.0 (dna17) or 4.5 (dna14); temperature not stated; conditions: protein: recombinant; tags: N-terminal 6xHis-SUMO, cleaved with Ulp1; single-nucleotide T/A overhangs at the ends

Binder | binding result [1] | binding result [2]
B1 | binds | –
B2 | – | binds

Reference: PMC8565326, “Structural dissection of sequence recognition and catalytic mechanism of human LINE-1 endonuclease”
